# B1: tetherin/BST-2 (natural protein)
# chain: MASTSYDYCRVPMEDGDKRCKLLLGIGILVLLIIVILGVPLIIFTIKANSEACRDGLRAVMECRNVTHLLQQELTEAQKGFQDVEAQAATCNHTVMALMASLDAEKAQGQKKVEELEGEITTLNHKLQDASAEVERLRRENQVLSVRIADKKYYPSSQDSS
# notes: tetherin/BST-2, human; untagged expression plasmid described in earlier work [20, 29, 38]; also called wild-type tetherin; source: 293T, co-transfected (200 ng plasmid), in lysate
# Target: T1, GFP-tagged ROD10 Env_(Y707A) (HIV-2 (strain ROD10), UniProt P04577 20-858, Y707A)
# T1 construct: Env protein of HIV-2 strain ROD10 with a point mutation that disrupts an endocytosis motif in the cytoplasmic tail (pROD10_(Y707A) Env); also called Y707A mutant; source: 293T, co-transfected (2 ug plasmid), in lysate; not shown: eGFP, C-terminal, kept
# T1 sequence (looked up): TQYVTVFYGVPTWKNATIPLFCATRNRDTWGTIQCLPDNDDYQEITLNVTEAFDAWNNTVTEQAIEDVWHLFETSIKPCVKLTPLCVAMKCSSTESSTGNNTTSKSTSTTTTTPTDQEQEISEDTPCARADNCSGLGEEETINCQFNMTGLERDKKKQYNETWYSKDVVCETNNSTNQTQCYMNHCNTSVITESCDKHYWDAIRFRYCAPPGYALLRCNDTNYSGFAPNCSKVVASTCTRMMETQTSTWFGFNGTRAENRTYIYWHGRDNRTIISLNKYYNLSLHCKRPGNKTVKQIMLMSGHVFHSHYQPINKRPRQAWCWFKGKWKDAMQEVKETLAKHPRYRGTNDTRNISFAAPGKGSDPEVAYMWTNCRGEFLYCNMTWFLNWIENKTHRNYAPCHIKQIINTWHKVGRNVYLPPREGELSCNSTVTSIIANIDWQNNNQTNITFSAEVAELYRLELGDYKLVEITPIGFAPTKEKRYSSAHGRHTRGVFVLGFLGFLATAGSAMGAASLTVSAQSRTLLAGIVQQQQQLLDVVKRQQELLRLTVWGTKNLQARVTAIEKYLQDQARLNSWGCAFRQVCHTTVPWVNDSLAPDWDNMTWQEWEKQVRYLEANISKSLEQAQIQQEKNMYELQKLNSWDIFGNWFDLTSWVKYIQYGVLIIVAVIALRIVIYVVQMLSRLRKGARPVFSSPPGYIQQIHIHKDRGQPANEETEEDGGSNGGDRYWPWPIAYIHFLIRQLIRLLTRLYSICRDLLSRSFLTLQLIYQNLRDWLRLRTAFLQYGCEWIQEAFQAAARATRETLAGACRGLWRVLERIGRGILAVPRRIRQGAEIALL
# Test: co-IP; quantification of tetherin immunoprecipitated by GFP-tagged Env, corrected for the cellular level of the Env protein, n = 3 experiments, data not shown
# Conditions: partners not purified
binder,measurement,value
B1,efficiency at immunoprecipitating tetherin relative to the WT ROD10 Env,67%

# Reference: PMC4528709, “Determinants in HIV-2 Env and tetherin required for functional interaction” (Retrovirology, 2015)
